Results reported in patent US20250019442A1 (LANOVA MEDICINES, published 2025).
Positions count from the first letter of the chain named. One block for each binder: values may come before it.

Key:
[1] = target: T1, cynomolgus PD1 (cynomolgus, UniProt B0LAJ3 25-170); experiment: ELISA, cynomolgus PD1 coated, anti-human IgG-HRP detection
T1 construct: Recombinant protein for ELISA; also called cynomolgus PD1 protein
Method: (§1) To evaluate PD1 binding activity of the test bispecific antibodies, human PD1 and cynomolgus PD1 diluted in PBS were coated on a microplate respectively at 4° C. overnight. Three-fold dilution of test antibodies starting from 100 nM were added to each well and incubated for 1 hours at 25° C. Then, the plates were washed with ELISA washing buffer (1×DPBS with 0.5% Tween-20) and incubated with peroxidase conjugated anti-human IgG secondary antibody for 60 minutes at 25° C. After washed four times with ELISA washing buffer, the plates were detected by TMB-ELISA substrate solution, then stopped by ELISA stopping solution and analyzed by microplate reader at OD450 nm.

[2] = target: T2, human PD-1 overexpressed on cells (human, UniProt Q15116 25-288); experiment: flow cytometry on CHO-K1 cells overexpressing human PD-1; column headed OD450 but the text says MFI of PE; design: unit not given here
T2 construct: whole, on cells; also called CHO-K1 cells overexpressing human PD-1; Jurkat-PD1 cells
T2 sequence (Q15116 25-288): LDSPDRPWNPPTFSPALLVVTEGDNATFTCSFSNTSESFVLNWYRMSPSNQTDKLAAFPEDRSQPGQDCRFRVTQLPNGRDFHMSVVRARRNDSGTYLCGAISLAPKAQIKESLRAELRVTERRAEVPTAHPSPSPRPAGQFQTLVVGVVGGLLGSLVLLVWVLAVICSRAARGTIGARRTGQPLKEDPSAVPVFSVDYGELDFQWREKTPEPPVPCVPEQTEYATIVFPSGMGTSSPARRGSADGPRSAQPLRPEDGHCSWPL
Method: (§2) To further determine PD-1 binding activity of the bispecific antibodies, CHO-K1 cells overexpressing human PD-1 were incubated with different concentrations of anti-PD1-VEGF bispecific antibodies and reference antibodies at 4° C. for 30 minutes. Then, the cells were washed twice with FACS buffer and stained with PE conjugated secondary antibody at 4° C. for 30 minutes. After wash twice with FACS buffer, MFI of PE was analyzed by a NovoCyte flow cytometer.

[3] = target: T2, human PD-1 overexpressed on cells; experiment: flow cytometry on CHO-K1 cells overexpressing human PD-1, PE secondary antibody
Method: as §2

[4] = target: T2, human PD-1 overexpressed on cells; experiment: cell-based or functional assay
[5] = target: T3, human PD1 (human, UniProt Q15116 25-167, limits assumed); experiment: ELISA, human PD1 coated, anti-human IgG-HRP detection
T3 construct: Recombinant protein for ELISA; also called human PD1 protein
T3 sequence (Q15116 25-167 limits assumed): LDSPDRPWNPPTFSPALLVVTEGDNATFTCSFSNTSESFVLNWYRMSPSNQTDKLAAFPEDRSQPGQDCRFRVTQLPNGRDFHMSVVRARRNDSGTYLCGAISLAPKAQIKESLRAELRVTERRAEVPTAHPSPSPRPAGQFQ
Method: as §1

T1 sequence (B0LAJ3 entry or part of it limits assumed, form in doubt): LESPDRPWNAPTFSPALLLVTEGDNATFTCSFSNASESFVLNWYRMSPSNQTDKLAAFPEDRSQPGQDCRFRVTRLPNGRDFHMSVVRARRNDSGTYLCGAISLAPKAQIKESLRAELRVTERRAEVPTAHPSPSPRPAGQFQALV

EC50 [1]: 0.057 nM | Top (OD450) [1]: 1.17 OD450
B1: Pembrolizumab (antibody, V domains shown)
VH: QVQLVQSGVEVKKPGASVKVSCKASGYTFTNYYMYWVRQAPGQGLEWMGGINPSNGGTNFNEKFKNRVTLTTDSSTTTAYMELKSLQFDDTAVYYCARRDYRFDMGFDYWGQGTTVTVSS
VL: EIVLTQSPATLSLSPGERATLSCRASKGVSTSGYSYLHWYQQKPGQAPRLLIYLASYLESGVPARFSGSGSGTDFTLTISSLEPEDFAVYYCQHSRDLPLTFGGGTKVEIKR

EC50 [1]: 0.151 nM | Top (OD450) [1]: 1.56 OD450 | Top (OD450) [2]: 963000 | EC50 [3]: 2.35 nM | EC50 (nM), PD1 blocking activity (PD1 reporter gene assay) [4]: 11.2 nM | Top (RLU), PD1 blocking activity (PD1 reporter gene assay) [4]: 191000 RLU | EC50 [5]: 0.083 nM | Top (OD450) [5]: 1.75 OD450
B2: VH18 (anti-PD-1 VHH) (VHH)
VHH: EVQLVESGGGLVQPGGSLRLSCAVSGNIYNRNFMGWFRQAPGKGREGVSAIYTGTSRTYYADSVKGRFTISRDNAKNTVYLQMNSLRPEDTAVYYCAADLRDGFWDTGVWNTWGQGTLVTVSS
notes: also called VH18 VHH; anti-PD1 parental antibody VH18

Top (OD450) [2]: 448000 | EC50 [3]: 0.759 nM | EC50 (nM), PD1 blocking activity (PD1 reporter gene assay) [4]: 13.3 nM | Top (RLU), PD1 blocking activity (PD1 reporter gene assay) [4]: 201000 RLU
B3: VH8M1 (anti-PD-1 VHH) (VHH)
VHH: B2 VHH with R45L, A75S, P88A, D102E
notes: also called VH8M1 VHH; anti-PD-1 parental nanobody
